The source of these data is the Immune Epitope Database (IEDB).

Common to all, as to experiment: IEDB peptide-MHC binding, purified MHC/competitive/fluorescence; filed as Kd, often an IC50 or EC50 that approximates it; ≥ and ≤ were set here for values at or beyond the usual limits of such assays
The target in one assay is HLA-A*02:01. The settings on record: source organism: Escherichia coli F11.
The target in another assay is HLA-B*15:42. To be noted: source organism: Escherichia coli F11.
Another assay has as its target HLA-B*40:13. The settings on record: source organism: Escherichia coli F11.
Another assay addresses HLA-B*45:06. To be noted: source organism: Escherichia coli F11.
A further assay addresses HLA-B*83:01. The settings on record: source organism: Escherichia coli F11.
A further assay has as its target HLA-A*11:01. The settings on record: source organism: Homo sapiens.
For the next assay, the target named is HLA-A*26:02. To be noted: source organism: Homo sapiens.
The next assay deals with HLA-A*26:03. To be noted: source organism: Homo sapiens.
Another assay addresses HLA-A*68:02. To be noted: source organism: Homo sapiens.
The target of another assay is HLA-B*08:01. The settings on record: source organism: Homo sapiens.
A further assay addresses HLA-B*08:03. To be noted: source organism: Homo sapiens.
The next assay concerns the target HLA-B*15:09. To be noted: source organism: Homo sapiens.
The target in a further assay is HLA-B*15:17. To be noted: source organism: Homo sapiens.

On to GLIPQWVTL, for which the dissociation constant Kd in the assay with HLA-A*02:01 is not above 0.0001 µM; in the assay with HLA-B*15:42 it was not below 5 µM; in the assay with HLA-B*40:13, 0.458 µM; with HLA-B*45:06 it was not below 5 µM; with HLA-B*83:01, not below 5 µM.
On to TYSPALNKM, for which the Kd was not below 20 µM in the assay with HLA-A*11:01; 0.531 µM in the assay with HLA-A*26:02; not below 20 µM with HLA-A*26:03; 3.22 µM with HLA-A*68:02; not below 20 µM with HLA-B*08:01; not below 20 µM with HLA-B*08:03. In addition, the Kd with HLA-B*15:09 and in the assay with HLA-B*15:17 was not below 20 µM throughout.

For orientation: Kd means the constant that tells how readily two partners part at equilibrium.
